The text below walks through data of patent publication US20220204613A1 (D 10 THERAPEUTICS, published 2022).

Positions count from the first letter of the chain named. Names and notes keep the numbering of the source.

Assay [1] concerns the target T1, human CD47 protein (human, UniProt Q08722 19-139, limits assumed).
T1 construct: also called human CD47 antigen
The assay is described as follows: ELISA on human CD47 protein, antibody 1.67E+00 ug/ml.

Assay [2] has as its target T1, human CD47 protein. The assay is described as follows: ELISA on human CD47 protein, antibody 5.56E-01 ug/ml.
The target in assay [3] is T1, human CD47 protein. The assay is described as follows: ELISA on human CD47 protein, antibody 7.62E-04 ug/ml.
In assay [4] the target is T1, human CD47 protein. The assay is described as follows: ELISA on human CD47 protein, antibody 15 ug/ml.
Assay [5] concerns the target T1, human CD47 protein. Briefly: ELISA on human CD47 protein, antibody 2.06E-02 ug/ml.
The target of assay [6] is T1, human CD47 protein. The assay is described as follows: ELISA on human CD47 protein, antibody 45 ug/ml.
Assay [7] concerns the target T1, human CD47 protein. Briefly: ELISA on human CD47 protein, antibody 6.17E-02 ug/ml.
The target in assay [8] is T1, human CD47 protein. Briefly: ELISA on human CD47 protein, antibody 2.29E-03 ug/ml.
The target of assay [9] is T1, human CD47 protein. Briefly: ELISA on human CD47 protein, antibody 6.86E-03 ug/ml.
Assay [10] addresses T1, human CD47 protein. Briefly: ELISA on human CD47 protein, OD450nm against log Ab conc; EC50 row of the table drawn under the plot; fit of the flat control curve.
Assay [11] concerns the target T1, human CD47 protein. The assay is described as follows: ELISA on human CD47 protein, antibody 5.00E+00 ug/ml.
Assay [12] concerns the target T1, human CD47 protein. Briefly: ELISA on human CD47 protein, antibody 1.85E-01 ug/ml.
Assay [13] addresses T1, human CD47 protein. The assay is described as follows: SPR (Biacore) affinity ranking, ligand captured through Fc, human CD47 as analyte, 25 °C, 1:1 Binding model; fit of a flat sensorgram.
In assay [14] the target is T1, human CD47 protein. Briefly: SPR Biacore, supernatant ranking run, human CD47 analyte 5 nM.
For assay [15], the target named is T2, extracellular domain of human CD47 (human, UniProt Q08722 19-139).
T2 construct: also called immunogen
T2 sequence (Q08722 19-139 limits assumed): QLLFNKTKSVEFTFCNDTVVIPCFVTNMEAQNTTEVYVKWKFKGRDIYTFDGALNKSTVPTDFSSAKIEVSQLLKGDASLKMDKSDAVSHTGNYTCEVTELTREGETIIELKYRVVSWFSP
The assay is described as follows: hybridoma screening ELISA on the immunogen. The procedure: Balb/c mice (4-6 mice per group) were immunized with the extracellular domain of human CD47 and immune adjuvant. Immune boosts were performed 3-5 times. Serum collection and titer evaluation by ELISA against target immunogen were performed. Spleens were extracted surgically from the highest titer mouse or mice. Mouse spleen cells were fused with rat myeloma cells facilitated by PEG. Fused cells were seeded into 96-well plates in the presence of HAT Fusion medium. Three consecutive rounds of clone testing were performed by ELISA using the immunogen for positive screening to identify and validate the positive hybridoma clones. Hybridoma cell lines producing the most suitable antibodies were subcloned and expanded for monoclonal antibody production and cell storage.

Assay [16] has as its target T1, human CD47 protein. The assay is described as follows: SPR Biacore, purified IgG Fc-captured, human CD47 analyte 0.3125-10 nM. The text has this:
Affinity measurement of purified humanized IgGs. The affinity of purified antibody binding to human CD47 was individually determined using a Surface Plasmon Resonance (SPR) biosensor, Biacore® T200/8K (GE Healthcare). Antibodies were captured on the sensor chip through Fc capture method. Human CD47 protein was used as the analyte. The data of dissociation (kd) and association (ka) rate constants were obtained using Biacore T200/8K evaluation software. The equilibrium dissociation constants (KD) were calculated from the ratio of kd over ka.

Assay [17] deals with T1, human CD47 protein. The assay is described as follows: ELISA on human CD47 protein, antibody 0 ug/ml (blank).
For assay [18], the target named is T1, human CD47 protein. Briefly: SPR Biacore, supernatant antibody Fc-captured, human CD47 analyte 5 nM. The procedure:
Production and affinity ranking of humanized antibodies. The designed plasmids of heavy chain and light chain were sent for 3 mL transfection following GenScript's SOP. For affinity ranking, Antibodies were captured on the sensor chip through Fc capture method. Human CD47 protein was used as the analyte. The surface was regenerated before the injection of another antibody. The process was repeated until all antibodies were analyzed. The off-rates of antibodies were obtained from fitting the experimental data locally to 1:1 interaction model using the Biacore® T200/8K evaluation software. The antibodies were ranked by their dissociation rate constants (off-rates, kd).

T1 sequence (Q08722 19-139 limits assumed): as above

Isotype control (antibody): the ELISA signal with human CD47 protein [1] came to 0.454; in the assay with human CD47 protein [2], 0.553; with human CD47 protein [3], 0.211; with human CD47 protein [4], 0.49; with human CD47 protein [5], 0.48; with human CD47 protein [6], 0.543. Further, the ELISA signal is 0.445 with human CD47 protein [7]; 0.287 with human CD47 protein [8]; 0.387 in the assay with human CD47 protein [9]; 0.562 with human CD47 protein [11]; 0.551 with human CD47 protein [12]. In the assay with human CD47 protein [10], the EC50 was 3.42 ng/mL.
As to NC, in the assay with human CD47 protein [13], the Kd came out at 387000 pM, the koff came out at 0.0179 s⁻¹ and the kon is 46300 M⁻¹ s⁻¹. Moreover, in the assay with human CD47 protein [14], the Kd was 387000 pM, the koff was 0.0179 s⁻¹ and the kon came out at 46300 M⁻¹ s⁻¹.

B1: 37H4H3 (antibody, V domains shown)
VH: EVQLQQSGPELVKPGASVKLSCKASGYTFTSSVMHWVKQKPGQGLEWLGYINPYSDGTKFNEKYKTKATLTSDKSSSTAYMELSSLTSEDSAVYYCARGLIGTRYDSWFAYWGQGTLVTVSA
VL: DIQMTQNASSLSASLGDRVTISCRTSQDINNYLNWYQQKPDGTVKLLIYYTSRLHSGVPSRFSGSGSGTDYSLSIRYLEQEDIATYFCHQGNTLPYTFGGGTKLEIK
notes: Mouse hybridoma antibody; also called antibody 37H4H3
On to B1, for which the binding result in [15] was “binds”.

B2: 33H11F3 (antibody, V domains shown)
VH: EVQLQQSGPELVKPGASVKMSCKASGYTFTSYVMHWVKQKPGQGLEWMGYINPYNDGTKYNEKFKGKATLTSDKSSNTAYMEFSSLTSEDSAVYYCARIDYGTIHTSWFAYWGQGTLVTVSA
VL: B1 VL with Q6H, N7T, A8T, T25A, N30S, S74T, R76S, Y77N, H89Q, Y96W
notes: Mouse hybridoma antibody; also called antibody 33H11F3
B2: in [15], the binding result is reported as “binds”.

B3: chimeric-VH+VL-1 (antibody, human IgG4, V domains shown)
VH: B1 VH with M34I, Y64C, T66I
VL: B1 VL with A8G, P40Q, S74T, Y77N, H89Q
notes: also called chimeric antibody
For B3, the ELISA signal with human CD47 protein [1] is 3.32; with human CD47 protein [2], 3.32; in the assay with human CD47 protein [3], 1.71; in the assay with human CD47 protein [4] it was 3.39; with human CD47 protein [5] it was 2.9; in the assay with human CD47 protein [6], 3.48. The ELISA signal in the assay with human CD47 protein [7] was 3.19; with human CD47 protein [17] it was 0.162; in the assay with human CD47 protein [8] it was 2.4; with human CD47 protein [9], 2.64; with human CD47 protein [11] it was 3.48; in the assay with human CD47 protein [12] it was 3.34. For the same molecule, the Kd with human CD47 protein [16] was 482 pM; with human CD47 protein [18], 340 pM. For the same molecule, the koff in the assay with human CD47 protein [16] amounted to 0.00255 s⁻¹; with human CD47 protein [18] it was 0.00261 s⁻¹. The figures for the kon with human CD47 protein [16] and in the assay with human CD47 protein [18] were 5.3e+06 M⁻¹ s⁻¹ and 7.69e+06 M⁻¹ s⁻¹, respectively.

B4: 38F1E12 (antibody, V domains shown)
VH: EVQLQQSGPELVQPGASVRMSCKASGYTFTSYVMHWVKQKPGQGLEWIGYINPYNDGTKYNEKFKGKATLTSDKSSSTAYMELSSLTSEDSAVYYCARGRNRYDGWFTYWGQGTLVTVSA
VL: B1 VL with N7T, A8T, S9F, T25A, N30S, S74T, R76S, Y77N, H89Q
notes: Mouse hybridoma antibody; also called antibody 38F1E12
B4: in assay [15], the binding result is reported as “binds”.

B5: chimeric-VH+VL2 (antibody, human IgG4, V domains shown)
VH: B1 VH with M34I, Y64C, T66I
VL: DIQMNQSPSSLSASLGDTITITCHASQNINVWLSWYQQKPGNIPKLLIYKASNLHTGVPSRFSGSGSGTGFTLTISSLQPEDIATYYCQQGQSYPLTFGAGTKLELK
With B5, the ELISA signal with human CD47 protein [1] turned out to be 0.663; in the assay with human CD47 protein [2], 0.56; with human CD47 protein [3], 0.255; with human CD47 protein [4], 1.39; with human CD47 protein [5], 0.342; with human CD47 protein [6] it was 1.95. The ELISA signal was 0.435 with human CD47 protein [7]; 0.251 in the assay with human CD47 protein [17]; 0.276 with human CD47 protein [8]; 0.44 in the assay with human CD47 protein [9]; 0.918 with human CD47 protein [11]; 0.475 in the assay with human CD47 protein [12].

B6: VH1-PTM+VL1 (antibody, human IgG4 S228P, kappa, V domains shown)
VH: QVQLVQSGAEVKKPGASVKVSCKASGYTFTSSVIHWVRQAPGQGLEWMGYINPYSEGTKFNEKSKIRVTMTRDTSISTAYMELSRLRSDDTAVYYCARGLIGTRYDSWFAYWGQGTLVTVSS
VL: DIQMTQSPSSLSASVGDRVTITCRTSQDINNYLNWYQQKPGKAPKLLIYYTSRLHSGVPSRFSGSGSGTDFTFTISSLQPEDIATYYCQQGNTLPYTFGGGTKVEIKR
notes: Purified humanized IgG with PTM sites removed, hIgG4 CH (S228P) and human kappa CL; leader residues 1-19 of each entry left out; also called U0959FD090-VH1-PTM + U0959FD090-VL1
Take B6: in the assay with human CD47 protein [16], binding was put at a Kd of 872 pM, the koff was 0.0023 s⁻¹ and the kon turned out to be 2.64e+06 M⁻¹ s⁻¹.

B7: VH1-PTM+VL3 (antibody, human IgG4 S228P, kappa, V domains shown)
VH: B6 VH
VL: B6 VL with P44V, F71Y, Y87F
notes: Purified humanized IgG with PTM sites removed, hIgG4 CH (S228P) and human kappa CL; leader residues 1-19 of each entry left out; also called U0959FD090-VH1-PTM + U0959FD090-VL3
In the assay with human CD47 protein [16], B7 had a Kd of 458 pM, a koff of 0.0016 s⁻¹ and a kon of 3.49e+06 M⁻¹ s⁻¹.

B8: VH1-PTM+VL2 (antibody, human IgG4 S228P, kappa, V domains shown)
VH: B6 VH
VL: B6 VL with P44V, Y87F
notes: Purified humanized IgG with PTM sites removed, hIgG4 CH (S228P) and human kappa CL; leader residues 1-19 of each entry left out; also called U0959FD090-VH1-PTM + U0959FD090-VL2
For the molecule B8, in the assay with human CD47 protein [16], binding was put at a Kd of 556 pM, the koff worked out at 0.00193 s⁻¹ and the kon came to 3.46e+06 M⁻¹ s⁻¹.

B9: 41B1H9 (antibody, V domains shown)
VH: EVQLQQSGTELVKPGASVRLSCTASGLDIKDTYMHWLKQRPEQGLEWIGRIDPASGNAKHDPKFQGKATITSDPSSNTANLQLTSLTSEDSAVYYCASGYGHYVGAMDYWGQGTSVTVSS
VL: B5 VL with G91S, Q92R, S93N, L96Y, A100G, L106I
notes: Mouse hybridoma antibody; also called antibody 41B1H9
As to B9, the binding result in assay [15] is “binds”.
